Common to all, as to assay: SPR two-state kinetic; FP: PBS + 0.05% Tween20, 5 nM DNA, 1 h, room temperature; SPR: Biacore S200, SA chip, protein 0.1-4500 nM, running buffer not given in material; errors are SD
In one data set the target is T1, IRF4 DBD L70V (Homo sapiens, UniProt Q15306 20-132, L70V).
T1 sequence: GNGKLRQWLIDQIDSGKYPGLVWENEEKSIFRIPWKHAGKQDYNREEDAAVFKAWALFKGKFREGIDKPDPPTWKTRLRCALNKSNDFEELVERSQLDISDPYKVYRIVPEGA
Particulars: protein: recombinant; tags: N-terminal His8-linker-His8-TEV, cleaved; label: 3' biotin; hairpin, TTTT loop.

A further data set has as its target T2, IRF4 DBD C99A (Homo sapiens, UniProt Q15306 20-132, C99A).
T2 sequence: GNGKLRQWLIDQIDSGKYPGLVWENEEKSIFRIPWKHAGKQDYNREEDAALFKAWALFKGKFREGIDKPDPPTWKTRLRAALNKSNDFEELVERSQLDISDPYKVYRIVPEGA
Particulars: protein: recombinant; tags: N-terminal His8-linker-His8-TEV, cleaved; label: 3' biotin; hairpin, TTTT loop.

The target of the next data set is T3, IRF4 DBD D117A (Homo sapiens, UniProt Q15306 20-132, D117A).
T3 sequence: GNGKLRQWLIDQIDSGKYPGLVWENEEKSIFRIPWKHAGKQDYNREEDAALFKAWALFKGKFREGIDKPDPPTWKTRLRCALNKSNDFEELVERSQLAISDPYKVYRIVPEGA
Particulars: protein: recombinant; tags: N-terminal His8-linker-His8-TEV, cleaved; label: 3' biotin; hairpin, TTTT loop.

A further data set deals with T4, IRF4 DBD C99R (Homo sapiens, UniProt Q15306 20-132, C99R).
T4 sequence: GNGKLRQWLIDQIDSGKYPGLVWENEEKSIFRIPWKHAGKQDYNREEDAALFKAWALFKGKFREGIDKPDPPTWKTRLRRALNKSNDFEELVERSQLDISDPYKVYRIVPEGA
Conditions: protein: recombinant; tags: N-terminal His8-linker-His8-TEV, cleaved; label: 3' biotin; hairpin, TTTT loop.

A further data set concerns the target T5, IRF4 DBD T95R (Homo sapiens, UniProt Q15306 20-132, T95R).
T5 sequence: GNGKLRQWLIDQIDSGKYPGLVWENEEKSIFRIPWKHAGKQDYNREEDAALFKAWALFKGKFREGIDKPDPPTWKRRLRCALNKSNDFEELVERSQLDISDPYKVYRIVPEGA
Conditions: protein: recombinant; tags: N-terminal His8-linker-His8-TEV, cleaved; label: 3' biotin; hairpin, TTTT loop.

For the next data set, the target named is T6, IRF4 DBD D117H (Homo sapiens, UniProt Q15306 20-132, D117H).
T6 sequence: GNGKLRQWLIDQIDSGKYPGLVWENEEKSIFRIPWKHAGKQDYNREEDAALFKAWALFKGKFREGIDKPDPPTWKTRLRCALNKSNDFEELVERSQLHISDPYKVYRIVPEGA
Conditions: protein: recombinant; tags: N-terminal His8-linker-His8-TEV, cleaved; label: 3' biotin; hairpin, TTTT loop.

A further data set addresses T7, IRF4 DBD S114N (Homo sapiens, UniProt Q15306 20-132, S114N).
T7 sequence: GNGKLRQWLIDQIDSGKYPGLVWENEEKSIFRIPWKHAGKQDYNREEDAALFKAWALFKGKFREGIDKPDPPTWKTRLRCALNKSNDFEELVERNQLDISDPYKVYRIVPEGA
Particulars: protein: recombinant; tags: N-terminal His8-linker-His8-TEV, cleaved; label: 3' biotin; hairpin, TTTT loop.

The target of a further data set is T8, IRF4 DBD S114R (Homo sapiens, UniProt Q15306 20-132, S114R).
T8 sequence: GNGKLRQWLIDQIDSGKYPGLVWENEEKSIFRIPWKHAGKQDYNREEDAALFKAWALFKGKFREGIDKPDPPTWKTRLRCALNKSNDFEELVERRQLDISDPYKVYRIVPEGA
Particulars: protein: recombinant; tags: N-terminal His8-linker-His8-TEV, cleaved; label: 3' biotin; hairpin, TTTT loop.

In a further data set the target is T9, IRF4 DBD T95K (Homo sapiens, UniProt Q15306 20-132, T95K).
T9 sequence: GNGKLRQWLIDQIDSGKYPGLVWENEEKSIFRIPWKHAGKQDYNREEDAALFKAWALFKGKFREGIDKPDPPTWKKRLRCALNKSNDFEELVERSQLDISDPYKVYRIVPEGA
Particulars: protein: recombinant; tags: N-terminal His8-linker-His8-TEV, cleaved; label: 3' biotin; hairpin, TTTT loop.

The next data set addresses T10, IRF4 DBD C99S (Homo sapiens, UniProt Q15306 20-132, C99S).
T10 sequence: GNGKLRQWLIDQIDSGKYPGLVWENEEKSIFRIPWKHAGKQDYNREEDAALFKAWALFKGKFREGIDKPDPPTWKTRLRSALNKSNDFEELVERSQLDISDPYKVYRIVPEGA
Particulars: protein: recombinant; label: 3' biotin; hairpin, TTTT loop.

By Kd is commonly meant the concentration at which binding is half-saturated. Turning to CTTGGTTTCACTTCCTGCGTTTTCGCAGGAAGTGAAACCAAG (structured_DNA) [IRE hairpin (biotin)], the Kd stood at 121 ± 111 nM in the data set with IRF4 DBD L70V; 61 ± 29 nM in the data set with IRF4 DBD C99A; 293 ± 213 nM in the data set with IRF4 DBD D117A; 660 ± 317 nM with IRF4 DBD C99R; 481 ± 149 nM with IRF4 DBD T95R; 204 ± 131 nM with IRF4 DBD D117H. The equilibrium dissociation constant (Kd) is 145 ± 151 nM with IRF4 DBD S114N, 49 ± 26 nM in the data set with IRF4 DBD S114R, 913 ± 147 nM in the data set with IRF4 DBD T95K and 139 ± 43 nM in the data set with IRF4 DBD C99S.

The record behind these values is article doi:10.1101/2025.03.12.642038, “Structural, biophysical and biological analysis and characterisation of IRF4 DNA-binding domain mutations associated with multiple myeloma”.
